From paper PMC10397247 come the findings set out here.

Holding throughout (assay): two-hybrid library CCNG1;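 also: natural log of median RNA to DNA barcode read ratio; higher means stronger binding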
The target in one assay is T1, 4H918-bA.
T1 chain: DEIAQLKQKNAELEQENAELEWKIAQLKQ

A further assay concerns the target T2, P11A-bN.
T2 chain: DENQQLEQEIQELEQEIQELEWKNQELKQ

The target of a further assay is T3, 4H908-bA.
T3 chain: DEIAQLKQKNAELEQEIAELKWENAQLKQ

For another assay, the target named is T4, 4H967-bA.
T4 chain: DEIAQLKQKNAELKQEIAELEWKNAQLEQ

In a further assay the target is T5, 4H953-bA.
T5 chain: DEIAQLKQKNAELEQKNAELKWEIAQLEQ

In another assay the target is T6, P12A-bN.
T6 chain: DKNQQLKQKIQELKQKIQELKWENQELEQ

A further assay addresses T7, P7A-bN.
T7 chain: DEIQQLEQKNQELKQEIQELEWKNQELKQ

For a further assay, the target named is T8, P1A-bN.
T8 chain: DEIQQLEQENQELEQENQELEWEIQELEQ

A further assay deals with T9, P6A-bN.
T9 chain: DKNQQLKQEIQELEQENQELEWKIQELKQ

Another assay addresses T10, P2A-bN.
T10 chain: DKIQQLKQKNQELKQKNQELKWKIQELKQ

For a further assay, the target named is T11, P8A-bN.
T11 chain: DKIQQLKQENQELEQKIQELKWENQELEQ

For a further assay, the target named is T12, P4A-bN.
T12 chain: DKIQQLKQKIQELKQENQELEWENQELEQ

In a further assay the target is T13, P5A-bN.
T13 chain: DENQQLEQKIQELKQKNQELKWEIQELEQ

For another assay, the target named is T14, P3A-bN.
T14 chain: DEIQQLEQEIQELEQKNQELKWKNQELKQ

In a further assay the target is T15, P9A-bN.
T15 chain: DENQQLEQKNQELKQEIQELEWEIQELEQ

The target of a further assay is T16, P1A-bH.
T16 chain: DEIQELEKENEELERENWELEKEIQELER

The next assay deals with T17, P9A-bH.
T17 chain: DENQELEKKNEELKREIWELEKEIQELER

Another assay has as its target T18, P7A-bH.
T18 chain: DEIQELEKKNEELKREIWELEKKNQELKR

In the next assay the target is T19, P2A-bH.
T19 chain: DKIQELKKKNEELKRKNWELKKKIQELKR

A further assay has as its target T20, P6A-bH.
T20 chain: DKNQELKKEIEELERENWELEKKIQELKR

The target in a further assay is T21, P5A-bH.
T21 chain: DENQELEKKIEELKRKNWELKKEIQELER

For the next assay, the target named is T22, P4A-bH.
T22 chain: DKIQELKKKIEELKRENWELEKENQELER

For a further assay, the target named is T23, P3A-bH.
T23 chain: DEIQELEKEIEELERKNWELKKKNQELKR

The next assay has as its target T24, P12A-bH.
T24 chain: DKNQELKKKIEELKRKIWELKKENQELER

The next assay deals with T25, P8A-bH.
T25 chain: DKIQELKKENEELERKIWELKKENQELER

The target in another assay is T26, 4H1845-bH.
T26 chain: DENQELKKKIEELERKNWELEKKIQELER

The target in a further assay is T27, 4H3843-bH.
T27 chain: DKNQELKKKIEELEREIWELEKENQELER

In the next assay the target is T28, 4H3606-bH.
T28 chain: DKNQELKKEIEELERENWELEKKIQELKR

Another assay has as its target T29, 4H2697-bH.
T29 chain: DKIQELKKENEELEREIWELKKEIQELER

The target of the next assay is T30, 4H2610-bH.
T30 chain: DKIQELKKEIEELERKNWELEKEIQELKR

The next assay has as its target T31, 4H1369-bH.
T31 chain: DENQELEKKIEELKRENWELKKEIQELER

A further assay concerns the target T32, 4H4001-bH.
T32 chain: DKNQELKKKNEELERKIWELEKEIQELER

A further assay concerns the target T33, 4H3189-bH.
T33 chain: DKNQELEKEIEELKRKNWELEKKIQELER

Another assay has as its target T34, 4H1446-bH.
T34 chain: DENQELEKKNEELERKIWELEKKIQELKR

Another assay concerns the target T35, 4H797-bH.
T35 chain: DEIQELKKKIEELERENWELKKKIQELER

In a further assay the target is T36, 4H607-bH.
T36 chain: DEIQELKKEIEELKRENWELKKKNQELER

In the next assay the target is T37, 4H331-bH.
T37 chain: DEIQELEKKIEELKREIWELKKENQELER

A further assay deals with T38, 4H967-bH.
T38 chain: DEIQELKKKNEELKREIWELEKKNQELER

The next assay concerns the target T39, 4H953-bH.
T39 chain: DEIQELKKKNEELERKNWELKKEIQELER

The target in a further assay is T40, 4H2576-bH.
T40 chain: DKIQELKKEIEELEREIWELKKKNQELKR

The target of another assay is T41, 4H3782-bH.
T41 chain: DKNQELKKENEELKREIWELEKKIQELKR

The target in the next assay is T42, 4H687-bH.
T42 chain: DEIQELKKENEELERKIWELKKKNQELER

Another assay has as its target T43, 4H883-bH.
T43 chain: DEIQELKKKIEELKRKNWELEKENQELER

Another assay deals with T44, 4H72-bH.
T44 chain: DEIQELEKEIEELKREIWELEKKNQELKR

Another assay concerns the target T45, 4H370-bH.
T45 chain: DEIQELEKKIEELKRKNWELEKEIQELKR

A further assay concerns the target T46, 4H2667-bH.
T46 chain: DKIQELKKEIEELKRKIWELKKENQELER

The target in the next assay is T47, 4H568-bH.
T47 chain: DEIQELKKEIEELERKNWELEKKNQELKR

The next assay has as its target T48, 4H462-bH.
T48 chain: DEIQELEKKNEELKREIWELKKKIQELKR

The target in another assay is T49, 4H918-bH.
T49 chain: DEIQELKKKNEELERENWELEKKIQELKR

For a further assay, the target named is T50, O9-bN.
T50 chain: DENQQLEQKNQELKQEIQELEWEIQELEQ

In the case of DEIAQLKQKNAELEQEIAELKWENAQLKQ [4H908-bA], the interaction score with 4H918-bA is 0.429; with P11A-bN, 1.22; with 4H908-bA, 0.539; in the assay with 4H967-bA, -0.532; with 4H953-bA, -0.801.

As for DKNQQLKQENQELEQKIQELKWKIQELKQ [P10A-bN], the interaction score is 0.197 with P11A-bN; -0.334 with P12A-bN; 0.528 with P7A-bN; -0.0109 in the assay with P1A-bN; -0.522 with P6A-bN; -1.29 in the assay with P2A-bN. Besides, the interaction score in the assay with P8A-bN was -1.93; with P4A-bN, 0; in the assay with P5A-bN, -0.55; with P3A-bN, -2.58.

In the case of DENQQLEQEIQELEQEIQELEWKNQELKQ [P11A-bN], the interaction score in the assay with P11A-bN was 0.856; with P12A-bN it was 0.458; in the assay with P7A-bN, -0.868; with P1A-bN, -0.501; in the assay with P6A-bN, -0.465; with P2A-bN, 0.436. Also, the interaction score with P8A-bN was 0.54; with P4A-bN, 1.12; with P5A-bN it was -1.3; with P9A-bN it was 0.422; with P3A-bN it was 0.143.

Turning to DKNQELKKKIEELKRKIWELKKENQELER [P12A-bH], the interaction score was 0.256 in the assay with P1A-bH; 0.667 with P9A-bH; -0.514 with P7A-bH; -1.23 with P2A-bH; 0.389 in the assay with P6A-bH; -2.21 in the assay with P5A-bH. Besides, the interaction score is -0.357 with P4A-bH, 1.64 in the assay with P3A-bH, -0.588 in the assay with P12A-bH and 0.274 with P8A-bH.

As for DENQELEKKIEELERKIWELKKKNQELKR [4H1328-bH], the interaction score with 4H1845-bH is -0.384; with 4H3843-bH it was 1.38; with 4H3606-bH it was 0.235; in the assay with 4H2697-bH, 0.213; with 4H2610-bH it was 0.958; with 4H1369-bH, -1.31. The interaction score with 4H4001-bH is 1.01; in the assay with 4H3189-bH it was -0.241; in the assay with 4H1446-bH, 0.331; with 4H797-bH it was 0.552; in the assay with 4H607-bH it was -1.86; with 4H331-bH, 1.28. Also, the interaction score with 4H967-bH is -1.62; in the assay with 4H953-bH, -0.534; with 4H2576-bH, 1.67; with 4H3782-bH it was 0.448; with 4H687-bH, -1.73; with 4H883-bH, 0.137. Also, the interaction score is 0.492 in the assay with 4H72-bH; -0.934 in the assay with 4H370-bH; -0.993 in the assay with 4H2667-bH; 0.634 with 4H568-bH; 0 with 4H462-bH; -0.116 in the assay with 4H918-bH.

In the case of DENQELEKKIEELKRENWELKKEIQELER [4H1369-bH], the interaction score was -0.792 in the assay with 4H1845-bH; -0.198 in the assay with 4H3843-bH; 1.14 with 4H3606-bH; -0.653 with 4H2697-bH; 0.178 with 4H2610-bH; -0.455 with 4H1369-bH. For the same molecule, the interaction score in the assay with 4H4001-bH was -0.331; with 4H3189-bH it was -0.572; with 4H1446-bH, -1.19; in the assay with 4H797-bH, -0.464; in the assay with O9-bN, -3.43; in the assay with 4H607-bH, -0.13. The interaction score with 4H331-bH was -0.491; in the assay with 4H967-bH, -0.723; with 4H953-bH, -0.636; with 4H2576-bH, -0.848; in the assay with 4H3782-bH, -0.489; with 4H687-bH it was 0.994. Besides, the interaction score was -0.565 with 4H883-bH; -1.58 in the assay with 4H72-bH; -1.73 in the assay with 4H370-bH; -0.433 with 4H2667-bH; -1.94 with 4H568-bH; -1.88 in the assay with 4H462-bH. Besides, the interaction score with 4H918-bH is -1.26.
